The labels stand for the following.
B1: suPAR_DB04_H07 (scFv, V domains shown)
VH: QVQLVQSGAEVKKPGASVKVSCKASGYTFTSYYMHWVRQAPGQGLEWMGWIDHENGNTSYDQKFQGRVTMTRDTSTSTVYMELSSLRSEDTAVYYCARGYDVDWFVYWGQGTLVTVSS
VL: DIQMTQSPSSLSASVGDRVTITCRARSSVSYMYWYQQKPGKAPKLLIYRTSNLASGVPSRFSGSGSGTDFTLTISSLQPEDFATYYCQQYHSYPPTFGGGTKVEIK
notes: Screened as scFv
B2: suPAR_DB05_C08 (scFv, V domains shown)
VH: B1 VH with H53P, S59I
VL: B1 VL with S27Q
notes: Screened as scFv
B3: suPAR_DB05_B06 (scFv, V domains shown)
VH: B1 VH with T28P, S31N, N55G, N57S, S59I
VL: B1 VL with R24S, R26S, S27Q
notes: Screened as scFv
B4: suPAR_DB05_B11 (scFv, V domains shown)
VH: B1 VH with T30S, S31A, S59I, D61A
VL: B1 VL with R24S
notes: Screened as scFv
B5: suPAR_DB05_B04 (scFv, V domains shown)
VH: B1 VH with S31T, H53P, E54S, S59I
VL: B1 VL with R24S
notes: Screened as scFv
B6: suPAR_DB05_C03 (scFv, V domains shown)
VH: B1 VH with S31N, N55G, D61A
VL: B1 VL
notes: Screened as scFv
B7: suPAR_DB05_A08 (scFv, V domains shown)
VH: B1 VH with S31N, H53S, E54N, N55S, N57G, S59N, D61A
VL: B1 VL with R24S
notes: Screened as scFv
B8: suPAR_DB05_C02 (scFv, V domains shown)
VH: B1 VH with Y27D, H53P, E54S, S59I
VL: B1 VL with R24S
notes: Screened as scFv
B9: suPAR_DB05_B08 (scFv, V domains shown)
VH: B1 VH with Y27N, T28A, T30S, S31G, Y32H, M34V, S59I, D61A
VL: B1 VL with R24S, S27Q
notes: Screened as scFv
B10: suPAR_DB05_C07 (scFv, V domains shown)
VH: B1 VH with Y32H, M34V, N55G, N57S
VL: B1 VL with S27Q
notes: Screened as scFv
B11: suPAR_DB05_D10 (scFv, V domains shown)
VH: B1 VH with T30S, S31N, M34I, S59I, Y100T
VL: B1 VL with S27Q
notes: Screened as scFv
B12: suPAR_DB05_A10 (scFv, V domains shown)
VH: B1 VH with S31N, M34I, H53P, E54S, S59I
VL: B1 VL with R24S
notes: Screened as scFv
B13: suPAR_DB05_C11 (scFv, V domains shown)
VH: B1 VH with T28I, H53P, E54Y, N55S, N57A, S59N, D61A
VL: B1 VL with V29I
notes: Screened as scFv
B14: suPAR_DB05_B01 (scFv, V domains shown)
VH: B1 VH with T28P, S59I
VL: B1 VL with R24S, R26S
notes: Screened as scFv
B15: suPAR_DB05_D02 (scFv, V domains shown)
VH: B1 VH with F29I, S31G, Y32N, N57S, S59I
VL: B1 VL with R24S, S27Q, V29I
notes: Screened as scFv
B16: suPAR_DB05_A07 (scFv, V domains shown)
VH: B1 VH with S31N, H35Q, S59I, D61A
VL: B1 VL with R24S, S27Q
notes: Screened as scFv
B17: suPAR_DB05_D09 (scFv, V domains shown)
VH: B1 VH with H53P, S59I, D61A
VL: B1 VL with R24S, N52S
notes: Screened as scFv
B18: suPAR_DB05_C09 (scFv, V domains shown)
VH: B1 VH with S31G, D52S, H53P, E54D, N55S, N57A, S59K, Y60V, D61A
VL: B1 VL with R24S
notes: Screened as scFv
B19: suPAR_DB05_B03 (scFv, V domains shown)
VH: B1 VH with M34I, M48I, I51M, H53P, E54N, N55S, N57S, T58A, S59A, D61A
VL: B1 VL with R24S
notes: Screened as scFv
B20: suPAR_DB05_D01 (scFv, V domains shown)
VH: B1 VH with Y27H, F29S, S31N, N55G
VL: B1 VL with R24S
notes: Screened as scFv
B21: suPAR_DB05_C06 (scFv, V domains shown)
VH: QVQLVQSGAEVKKPGASVKVSCKASGFNIKSYYIHWVRQAPGQGLEWMGWIDPNSGGTNYAQKFQGRVTMTRDTSTSTVYMELSSLRSEDTAVYYCARGYDVDWFVYWGQGTLVTVSS
VL: B1 VL with R24S
notes: Screened as scFv
B22: suPAR_DB05_D06 (scFv, V domains shown)
VH: B1 VH with T30S, S59I, Y100D
VL: B1 VL with R24S
notes: Screened as scFv
B23: suPAR_DB05_C05 (scFv, V domains shown)
VH: B21 VH with F27Y, K63N
VL: B1 VL with R24S
notes: Screened as scFv
B24: suPAR_DB05_A06 (scFv, V domains shown)
VH: B1 VH with Y32H, M34V, S59I
VL: B1 VL with R24S
notes: Screened as scFv
B25: suPAR_DB05_B05 (scFv, V domains shown)
VH: B1 VH with Y27N, T30S, S31G, M34V, H53P, E54S, S59I
VL: B1 VL with R24S
notes: Screened as scFv
B26: suPAR_DB05_D11 (scFv, V domains shown)
VH: B1 VH with F29L, S31G, H35Q, H53P, N57S, S59I
VL: B1 VL with R24S, R26S
notes: Screened as scFv
B27: suPAR_DB05_D03 (scFv, V domains shown)
VH: B1 VH with T30G, S31N, S59I, D61A, Y100N
VL: B1 VL with R24S
notes: Screened as scFv
B28: suPAR_DB05_A11 (scFv, V domains shown)
VH: B21 VH with F27Y, N28T, I29F, K30T, S31G, I34M
VL: B1 VL with R24S
notes: Screened as scFv
B29: suPAR_DB05_D08 (scFv, V domains shown)
VH: B21 VH with F27Y, N28T, I29F, K30T, S31R, I34M, M48V, N54H, V102I
VL: B1 VL with R24S, S27Q
notes: Screened as scFv
B30: suPAR_DB04_H10 (scFv, V domains shown)
VH: B21 VH with F27Y, N28T, I29F, K30T, I34M, D52S, N54D
VL: B1 VL
notes: Screened as scFv
B31: suPAR_DB05_A05 (scFv, V domains shown)
VH: B1 VH with S31N, H53P, E54S, N55G, N57S, D61A
VL: B1 VL with S27Q
notes: Screened as scFv
B32: suPAR_DB04_H08 (scFv, V domains shown)
VH: B21 VH with F27Y, N28T, I29F, K30S, S31D, D52S, N54K, G57V
VL: B1 VL with R24S, R26S, S27Q
notes: Screened as scFv
B33: suPAR_DB05_B02 (scFv, V domains shown)
VH: B21 VH with F27Y, N28T, S31D, N54E, S55N, G57N, N59I
VL: B1 VL with R24S
notes: Screened as scFv
B34: suPAR_DB05_D05 (scFv, V domains shown)
VH: B1 VH with S31N, E54S, N57S, S59I
VL: B1 VL with S27Q
notes: Screened as scFv
B35: suPAR_DB05_C04 (scFv, V domains shown)
VH: B21 VH with S31D, N54E, S55N, G57N, N59I, A61D
VL: B1 VL with R24S, S27Q, A54Q
notes: Screened as scFv
B36: suPAR_DB05_B09 (scFv, V domains shown)
VH: B1 VH with S31G, H53P, E54S, N55G, S59I
VL: B1 VL with R24S
notes: Screened as scFv
B37: suPAR_DB04_H09 (scFv, V domains shown)
VH: QVQLVQSGAEVKKPGASVKVSCKASGGTFSGYYMHWVRQAPGQGLEWVGWITPDSGATAYAQKFQGRVTMTRDTSTSTVYMELSSLRSEDTAVYYCARGYDVDWFVYWGQGTLVTVSS
VL: B1 VL with R24S, S27Q
notes: Screened as scFv

Numbering of substitutions follows the chain as printed.

T2 sequence (Q9GK78 23-303 limits assumed): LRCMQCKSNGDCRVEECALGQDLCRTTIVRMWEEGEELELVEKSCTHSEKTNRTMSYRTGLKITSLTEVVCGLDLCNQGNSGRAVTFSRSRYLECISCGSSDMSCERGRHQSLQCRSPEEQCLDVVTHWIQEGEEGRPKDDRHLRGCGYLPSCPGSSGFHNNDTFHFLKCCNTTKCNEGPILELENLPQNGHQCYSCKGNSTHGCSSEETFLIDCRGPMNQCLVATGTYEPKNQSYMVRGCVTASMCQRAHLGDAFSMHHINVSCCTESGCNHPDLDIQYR

The first test deals with T1, human soluble urokinase plasminogen activator receptor (suPAR) (human, UniProt Q03405 23-303, limits assumed).
T1 construct: Column head says only 'human'; also called hsuPAR; human suPAR
T1 sequence (Q03405 23-303 limits assumed): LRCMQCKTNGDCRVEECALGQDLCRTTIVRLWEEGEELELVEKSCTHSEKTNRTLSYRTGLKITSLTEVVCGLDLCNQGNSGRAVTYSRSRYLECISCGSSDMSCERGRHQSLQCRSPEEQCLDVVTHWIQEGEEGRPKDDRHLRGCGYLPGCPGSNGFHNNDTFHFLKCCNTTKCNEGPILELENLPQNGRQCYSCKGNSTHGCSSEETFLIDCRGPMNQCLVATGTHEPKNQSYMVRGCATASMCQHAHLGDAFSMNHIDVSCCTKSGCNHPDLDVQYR
Kind of test: BLI (Octet) off-rate screen of scFv clones.
What is called koff is a measure of how fast the partners let go of each other. High values mean a short-lived complex, low ones a long-lived complex. In turn, B1 came in with an off-rate (koff) of 0.00511 s⁻¹.
Molecule B2 came in with a dissociation rate constant (koff) of 0.00284 s⁻¹.
B3 displayed an off-rate constant (koff) of 0.00213 s⁻¹. The koff values of the last two molecules are within 1.5-fold of each other.
As for B4, the off-rate (koff) worked out at 0.00219 s⁻¹.
As for B5, the koff came out at 0.00623 s⁻¹.
Take B6: the koff turned out to be 0.00367 s⁻¹. Against the preceding molecule, the koff is about 1.7-fold lower.
As for B7, the off-rate constant (koff) came to 0.00307 s⁻¹.
For B8, the koff amounted to 0.00375 s⁻¹.
B9 gave an off-rate constant (koff) of 0.00488 s⁻¹. The koff values of the last two molecules are within 1.5-fold of each other.
In the case of B10, the dissociation rate constant (koff) was found to be 0.00431 s⁻¹.
On the same count and under the same terms, the value for B11 was 0.006 s⁻¹; that for B12 was 0.00541 s⁻¹; that for B13 was 0.00335 s⁻¹.
The same measure, in the same setting: in the case of B14 it was 0.00356 s⁻¹; in that of B15, 0.00116 s⁻¹; in that of B16, 0.00495 s⁻¹.
The molecule B17 registered a dissociation rate constant (koff) of 0.00384 s⁻¹.
Molecule B18 returned a koff of 0.00384 s⁻¹.
The molecule B19 displayed an off-rate constant (koff) of 0.00366 s⁻¹.
B20 had a koff of 0.00533 s⁻¹.
In turn, B21 yielded a koff of 0.00507 s⁻¹.
On to B22, for which the koff was found to be 0.00345 s⁻¹. This koff and that of the molecule before are within 1.5-fold of each other.
As to B23, the koff amounted to 0.00547 s⁻¹. This koff is about 1.6-fold higher than that of the molecule before.
In turn, B24 yielded a koff of 0.00352 s⁻¹.
Molecule B25 gave a koff of 0.00417 s⁻¹.
The same measure, in the same setting: in the case of B26 it was 0.00555 s⁻¹; in that of B27, 0.00345 s⁻¹; in that of B28, 0.0018 s⁻¹.
As for B29, the koff worked out at 0.00471 s⁻¹.
With B30, the koff came to 0.00354 s⁻¹.
Same read-out and setting: the value for B31 was 0.00553 s⁻¹.
Turning to B32, the koff was found to be 0.0034 s⁻¹.
B33: the dissociation rate constant (koff) is 0.00565 s⁻¹.
The same measure, in the same setting: the value for B34 was 0.001 s⁻¹.
Molecule B35 yielded a koff of 0.00452 s⁻¹.
On the same count and under the same terms, in the case of B36 it was 0.00273 s⁻¹; in that of B37, 0.00475 s⁻¹.

A further test has as its target T2, cynomolgus soluble urokinase plasminogen activator receptor (suPAR) (cynomolgus, UniProt Q9GK78 23-303, limits assumed).
T2 construct: Column head says only 'cynomologus'; also called cynomolgus suPAR; cynomolgus uPAR
The experiment in a line: BLI (Octet) off-rate screen of scFv clones. Background: In BLI a coated tip is dipped into the sample, and binding shifts an interference pattern.
On to B1, for which the koff is 0.000249 s⁻¹.
The molecule B2 showed an off-rate (koff) of 0.000548 s⁻¹.
In turn, B3 came in with a dissociation rate constant (koff) of 0.000234 s⁻¹.
On the same count and under the same terms, the value for B4 was 0.000431 s⁻¹.
B5 displayed a koff of 0.000606 s⁻¹.
On the same count and under the same terms, the value for B6 was 0.000455 s⁻¹.
Take B7: the dissociation rate constant (koff) is 9.8e-05 s⁻¹.
As for B8, the koff was determined as 0.00061 s⁻¹.
In turn, B9 yielded an off-rate (koff) of 0.000129 s⁻¹. This koff lies about 4.7-fold lower than the previous one.
The molecule B10 gave a koff of 0.000237 s⁻¹.
The molecule B11 returned a dissociation rate constant (koff) of 0.000851 s⁻¹.
Molecule B12 had a koff of 0.000462 s⁻¹. This koff is about 1.8-fold lower than that of the molecule before.
On to B13, for which the koff came to 0.000168 s⁻¹.
Same read-out and setting: in the case of B14 it was 0.000232 s⁻¹; in that of B15, 0.000435 s⁻¹.
B16: the koff was 0.00029 s⁻¹.
Molecule B17 returned an off-rate (koff) of 0.000666 s⁻¹.
For B18, the off-rate (koff) came out at 0.000464 s⁻¹.
Regarding B19, the off-rate constant (koff) was 0.000311 s⁻¹.
As to B20, the off-rate (koff) stood at 0.000315 s⁻¹.
B21 registered an off-rate (koff) of 0.000123 s⁻¹.
In the case of B22, the koff came out at 0.000375 s⁻¹.
B23 showed an off-rate constant (koff) of 0.000202 s⁻¹.
As for B24, the koff was 0.000277 s⁻¹.
As to B25, the koff came to 0.000193 s⁻¹.
B26 gave a koff of 0.000775 s⁻¹.
Turning to B27, the koff is 0.00124 s⁻¹.
The same measure, in the same setting: the value for B28 was 0.000311 s⁻¹; that for B29 was 7.69e-05 s⁻¹.
The molecule B30 registered a koff of 0.000323 s⁻¹. This koff is about 4.2-fold higher than that of the molecule before.
For the molecule B31, the koff stood at 0.000639 s⁻¹. This koff lies about 2-fold higher than the previous one.
Molecule B32 came in with a koff of 5.42e-07 s⁻¹.
Molecule B33 yielded an off-rate (koff) of 0.000419 s⁻¹. This koff is about 770-fold higher than that of the molecule before.
With B34, the koff worked out at 0.000669 s⁻¹.
For B35, the off-rate constant (koff) stood at 0.000457 s⁻¹. This koff and that of the molecule before are within 1.5-fold of each other.
B36 displayed a dissociation rate constant (koff) of 0.000583 s⁻¹.
Consider B37, for which the off-rate (koff) came to 8.8e-05 s⁻¹.
